The results in this text go back to doi:10.1101/2023.11.05.564366v1.

Common to all, as to test: purified protein
What all share (conditions): 50 °C, 1100 rpm

Substrate in series [1]: O=C(O)c1ccc(C(=O)OCCO)cc1
Substrate in series [2]: O=C(O)c1ccc(C(=O)OCCOC(=O)c2ccc(C(=O)OCCO)cc2)cc1
Substrate in series [3]: O=C(O)c1ccc(C(=O)OCCOC(=O)c2ccc(C(=O)OCCOC(=O)c3ccc(C(=O)O)cc3)cc2)cc1
Substrate in series [4]: O=C(OCCO)c1ccc(C(=O)OCCO)cc1

B1: LCCICCG (unidentified prokaryotic organism; D238C/F243I/S283C/Y127G) (protein)
chain: QSNPYQRGPNPTRSALTADGPFSVATYTVSRLSVSGFGGGVIYYPTGTSLTFGGIAMSPGYTADASSLAWLGRRLASHGFVVLVINTNSRFDGPDSRASQLSAALNYLRTSSPSAVRARLDANRLAVAGHSMGGGGTLRIAEQNPSLKAAVPLTPWHTDKTFNTSVPVLIVGAEADTVAPVSQHAIPFYQNLPSTTPKVYVELCNASHIAPNSNNAAISVYTISWMKLWVDNDTRYRQFLCNVNDPALCDFRTNNRHCQ
Turning to B1, the Michaelis-Menten constant (Km) in series [1] was determined as 920 ± 220 µM; in series [2] it was 210 ± 91 µM; in series [3], 670 ± 610 µM; in series [4], 750 ± 270 µM. For the same protein, the kcat in series [1] turned out to be 0.058 ± 0.0024 s⁻¹; in series [2], 9.1 ± 2.71 s⁻¹; in series [3], 331 ± 142 s⁻¹; in series [4] it was 8.2 ± 1.22 s⁻¹.

Broadly, the Km is the concentration of substrate that gives half-maximal velocity. For orientation: kcat means the number of substrate molecules converted per active site and unit of time at saturation.
